In patent US20180030136A1:

Legend:
[1] = target: cynomolgus ICOS (cynomolgus); assay: Biacore, cyno ICOS
human ICOS (human) = human ICOS (human) (UniProt Q9Y6W8); assay: Biacore, human ICOS
Sequence of human ICOS (human) (Q9Y6W8 21-140 limits assumed): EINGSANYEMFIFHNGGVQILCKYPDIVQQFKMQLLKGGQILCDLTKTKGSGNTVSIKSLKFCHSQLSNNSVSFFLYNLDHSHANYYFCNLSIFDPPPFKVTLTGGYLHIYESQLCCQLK

Kd [1]: 0.0093 µM
Kd (human ICOS (human)): 0.017 µM
B1: ICOS mAb clone 314.8 (antibody, from another filing, V domains shown)
VH: QVQLQQPGTELMKPGASVKLSCKASGYTFTTYWMHWVKQRPGQGLEWIGEIDPSDSYVNYNQNFKGKATLTVDKSSSTAYIQLSSLTSEDSAVYFCARSPDYYGTSLAWFDYWGQGTLVTVST
VL: DIVMTQAAPSVPVTPGESVSISCRSSKSPLHSNGNIYLYWFLQRPGQSPQLLIYRMSNLASGVPDRFSGSGSGTTFTLKISRVEAEDVGVYYCMQHLEYPYTFGGGTKLEIK
